Results reported in US20030180744, “High affinity oligonucleotide ligands to growth factors” (GILEAD SCIENCES, INC., published 2003).

Tests used:
TGFβ1 [1] = target: T1, TGFβ1 (Homo sapiens, UniProt P01137 P01137:279-390); assay: filter; not inhibitory in cell assay; conditions: tags: Genentech; biotinylated version used in bead assay; chain copies: 2
TGFβ1 [2] = target: T1, TGFβ1; assay: filter; not inhibitory; conditions: tags: Genentech; biotinylated version used in bead assay; chain copies: 2
KGF (hKGF) [3] = target: T2, KGF (hKGF) (Homo sapiens, UniProt P21781 P21781:32-194); assay: filter; high +, low +; conditions: tags: Upstate Biotechnology
T2 sequence: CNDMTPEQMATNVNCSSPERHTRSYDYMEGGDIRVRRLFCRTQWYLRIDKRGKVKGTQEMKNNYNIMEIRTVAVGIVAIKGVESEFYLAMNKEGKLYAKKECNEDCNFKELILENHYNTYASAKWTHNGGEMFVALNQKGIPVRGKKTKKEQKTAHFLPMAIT
Description: In an effort to identify shorter KGF ligands that retained binding, the binding activity of various deletions of the shortest truncate of ligand 14F, namely 14F3′T were tested. Deletions were tested in all the structural elements of the proposed pseudoknot structure. RNA transcripts containing 2′F pyrimidines and 2′OH purines were obtained by in vitro transcription using synthetic DNA templates. The activity of each ligand is shown by scoring for both the high (H) and low (L) affinity component of the 14F3′T binding curve with +(active) or −(not active). Truncates T35 and T36 represent two complementary halves of 14F3′T molecule and were additionally tested as an equimolar mixture. The structural elements of the proposed pseudoknot structure are separated by (1) and are indicated by symbols S1 (stem 1), S2 (stem 2), L1 (loop 1) and L3 (loop 3). The proposed pseudoknot structure for 14F3′T is a non-H-type pseudoknot and lacks L2 (loop 2). The complementary sequences forming S1 (S1 and S1′) and S2 (S2 and S2′) are marked by single and double underlines respectfully. In the tabulated sequences, deleted bases were replaced with periods (.). […] Deletions in loop 3 (L3), however, were tolerated as long as one copy of the RRYY box remained intact. The shortest ligand that retained activity is T22 which is a 43-mer. In trying to obtain shorter ligands by truncating L3 further a mutant version of T22 (designated T22mu) was used where the last GC base pair of S1 was eliminated by a G to U mutation at position 6. The reasoning for this mutation was to enhance the flexibility of the double stranded region of this ligand by allowing an unpaired base between S1 and S2.

KGF (hKGF) [4] = target: T2, KGF (hKGF); assay: filter; similar to random RNA; conditions: tags: Upstate Biotechnology; label: 32P
KGF (hKGF) [5] = target: T2, KGF (hKGF); assay: filter; DPBS, 37 C; conditions: tags: Upstate Biotechnology; label: 32P
KGF (hKGF) [6] = target: T2, KGF (hKGF); assay: competition; PC-3 cells; conditions: tags: Upstate Biotechnology
Description: PC-3 cells were plated in 24-well plates at about 10⁵ cells per well. Following growth for […], the cells were serum starved for 24 hours, washed two times with 500 μl of cold DPBS, and then incubated with 500 μl binding buffer (BB1; DPBS, 0.5 mM MgCl₂, 0.2% BSA. 0.02% sodium azide) containing various concentrations of ¹²⁵I-labeled KGF ranging from 0 to 0.8 nM. Following 3-3.5 hour incubation at 4° C., the binding mixes were aspirated and the well-adhered cells were washed two times with 1 ml BB1 and once with 1 ml BB1 supplemented with 0.5M NaCl. The remaining bound labeled hKGF was solubilized in 600 μl 0.5% SDS/0.1M NaOH and counted in a gamma counter (Beckmann). Nonspecific binding was determined in the presence of 100 fold molar excess of unlabeled hKGF. For competition assays, the labeled hKGF was kept constant at […], and varying concentrations of competitor molecules were included in the binding reactions ranging from 0-1,000 nM. Binding curves were fitted to the equation: […]
A subset of these ligands was tested on the NIH3T3/FGFR-2. In determining the Ki values, it was assumed that 3T3 cells have 500,000 binding sites per cell and PC-3 cells have 5,000 binding sites per cell.

TGFβ1 [7] = target: T1, TGFβ1; assay: cell_activity; conditions: tags: Genentech or R&D Systems; chain copies: 2
Description: MLEC-Pail/luc cells were plated at 3.2×10⁴ cells per well in a 96 well Falcon plate, in 100 μl of DME+10% fetal bovine serum overnight. Media was made from autoclaved water. The cells were washed three times ([…]) in serum free DME plus Solution A (1:1). Solution A is 30 mM Hepes pH 7.6, 10 mM glucose, 3.0 mM KCl, 131 mM NaCl, 1.0 mM disodium phosphate. Samples (100 μl) were added in DME containing 20 mM Hepes pH 7.5, and 0.1% BSA (Fluka, radioimmunoassay grade). All samples were in triplicate. After six hours at 37° C. in a 5% CO₂ incubator the media was removed and cells were washed three times (100 μl each) in cold PBS. Lysis buffer (75 μl) (Analytical Luminescence Laboratory) was added and the plates incubated on ice for 20 min. The plates were sealed and frozen at −80° C. until assayed. Samples (25 μl) were assayed for luciferase activity with the Enhanced Luciferase Assay Kit from Analytical Luminescence Laboratory (San Diego, Calif., USA) according to the manufacturer's instructions using the Berthold Microlumat LB96P luminometer.
Ligands tested for inhibition of TGFβ1 activity were tested at a minimum of five concentrations. The ligands were serially diluted in DME, 20 mM Hepes pH 7.5, 0.1% Fluka BSA in polypropylene tubes and an equal volume of media containing 12 pM TGFβ1 was added to each tube, vortexed and transferred to the cells without further incubation.

TGFβ1 [8] = target: T1, TGFβ1; assay: filter; boundary experiment, each terminus separately; conditions: tags: Genentech or R&D Systems; chain copies: 2

T1 sequence (P01137 279-390, one chain of several): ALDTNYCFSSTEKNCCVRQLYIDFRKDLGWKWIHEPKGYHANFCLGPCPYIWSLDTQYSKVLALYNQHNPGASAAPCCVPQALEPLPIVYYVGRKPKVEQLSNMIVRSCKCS

B1: lib7-21 (ssRNA)
RNA: GGGGGAGAACGCGGAUCCGAGCAAUCCCGGGCGCAUAGCUUCCGAGGAGACAGGCGGGAGGGGUGGAUGUGGCGUCUCGAGAAGCUUCGCUCUAGAUCUCCCUUUAGUGAGGGUUA
modifications: 2'-F U, 2'-NH2 C
B1 was tested, and the Kd (TGFβ1 [1]) was 2.4 nM.

B2: lib7-43 (ssRNA)
RNA: GGGGGAGAACGCGGAUCCGAGCAAUCCCAGGCGCAUAGCUUCCGAGUAGACAGGCGGGAGGGGUGGAUGUGGCGUCUCGAGAAGCUUCGCUCUAGAUCUCCCUUUAGUGAGGGUUA
modifications: 2'-F U, 2'-NH2 C
For B2, the Kd (TGFβ1 [1]) was 3.3 nM.

B3: lib2-6-4 (ssRNA)
RNA: GGGGGAGAACGCGGAUCCGAGCAAUCCCAGGCGCAUAGCUUCCGAGUAGACAGGAGGGAGGGGUGGAUGUGGUGUCUCGAGAAGCUUCGCUCUAGAUCUCCCUUUAGUGAGGGUUA
modifications: 2'-NH2 pyrimidines
In the case of B3, the Kd (TGFβ1 [1]) is reported as 3.1 nM.

B4: lib9-10 (ssRNA)
RNA: GGGGGAGAACGCGGAUCCUGUCUCCACCGCCGAUACUGGGGUUCCUGGGGCCCCUCCAUGCAGGAGGGGUGGUUCGGAGAAAGCUUCGCUCUAGAUCUCCCUUUAGUGAGGGUUA
modifications: 2'-NH2 U, 2'-F C
Work on B4 yielded a Kd (TGFβ1 [2]) of 1.1 nM.

GGGAGGACGAUGCGGUGGUCUCCCAAUUCUAUUCUCCAUCGUAUC (ssRNA, 2'-F pyrimidines) [T5]: binds (KGF (hKGF) [3]).

B5: lib3-45 (ssRNA)
RNA: GGGGGAGAACGCGGAUCCGGAAGUCUGGUCUUUGGGGAGUCCGCAUGGCCCUGGCGAAAGCUUCGCUCUAGAUCUCCCUUUAGUGAGGGUUA
modifications: 2'-NH2 pyrimidines
Work on B5 yielded a Kd (TGFβ1 [2]) of 1.9 nM.

B6: lib1-20-5 (ssRNA)
RNA: GGGGGAGAACGCGGAUCCAAGAAUGUUCGGCCGCACGAGGUGACAGUGGUGCGGAUACGGACCGAUUGGGUUUGCCAAGCUUCGCUCUAGAUCUCCCUUUAGUGAGGGUUA
modifications: 2'-F pyrimidines
For B6, the Kd (TGFβ1 [2]) was 46 nM.

B7: 65N (ssRNA)
RNA: GGGAGGACGAUGCGGUAACGUGGAAUAGGGUUAAACAGCUGGAAAUAACGUAGGUGGCCAGACGACUCGCCCGA
modifications: 2'-NH2 pyrimidines
Binder B7 has a Kd (KGF (hKGF) [4]) of 26.6 nM.

B8: lib6-30 (ssRNA)
RNA: GGGGGAGAACGCGGAUCCUGCUAGACCGAGGAUGCAAAGGGACAUGCAUUAGGGAAACCUAUUAUAAGAACGCGGUCGCAGAAGCUUCGCUCUAGAUCUCCCUUUAGUGAGGGUUA
modifications: 2'-F pyrimidines
Binder B8 has a Kd (TGFβ1 [2]) of 8.8 nM.

B9: 43F (ssRNA)
RNA: GGGAGGACGAUGCGGUGUAGUUUCCCUGUAUGCCAUUCUUUCCCAUGCCGCACGCCAGACGACUCGCCCGA
modifications: 2'-F pyrimidines
For B9, the Kd (KGF (hKGF) [5]) was 1.13 nM and the IC50 (KGF (hKGF) [6]) was 80 nM.

B10: lib8-9* (ssRNA)
RNA: GGGGGAGAACGCGGAUCCGCAAUCCCAGGCGCAUAGCUUCCGAGUAGACAGGAGGGAGGGGUGGAUGUGGCGUCUACUCGGCGUCGUGAAGCUUCGCUCUAGAUCUCCCUUUAGUGAGGGUUA
modifications: 2'-NH2-U, 2'-F-C
B10 showed an IC50 (TGFβ1 [7]) of 124 nM.

GCUUCCGAGUAGACAGGAGGGAGGGGUGGAUGUGGCGUCUAC (ssRNA, modified pyrimidines) [lib3-13 boundaries (38-79)]: binds (TGFβ1 [8]).

B11: lib1-20-3-82 (ssRNA)
RNA: GGGGGAGAACGCGGAUCCUGCUAGACCGAGGAUGCAAAGGGACAUGCAUUAGGGAAACCUAUGUAUAAGAACGCGGUCGCAG
modifications: 2'-F pyrimidines
B11 gave a Kd (TGFβ1 [2]) of 6.1 nM.

B12: 57N (ssRNA)
RNA: GGGAGGACGAUGCGGUCGUGGGGUGGGUGGGGGCAGCGUUGGAAUAAGUAACUGGUAACGGCUGGCCAGACGACUCGCCCGA
modifications: 2'-NH2 pyrimidines
B12 was tested, and the Kd (KGF (hKGF) [4]) was 35.8 nM.

B13: lib4-12 boundaries (ssRNA)
RNA: GGAGAACGCGGAUCCUGAGAAGGACGUCGGGGUCAACGGGGUGAGGUGCAGCAGAAAGGGCCGGCACCA
modifications: modified pyrimidines
B13: binds (TGFβ1 [8]).

B14: lib5-48 (ssRNA)
RNA: GGGGGAGAACGCGGAUCCGGCAAUCCCAGGCGCAUAGCUUCCGAGUAGACAGGAGGGAGGGGUGGAUGUGGUGUACGAGGAAGCUUCGCUCUAGAUCUCCCUUUAGUGAGGGUUA
modifications: 2'-NH2 pyrimidines
B14 showed a Kd (TGFβ1 [1]) of 3.8 nM.

B15: lib6-23 (ssRNA)
RNA: GGGGGAGAACGCGGAUCCAAGCUUCGAGUAGACAGGAGGGAGGGGUGGAUGUGGAGUCUCGAGAAGCUUCGCUCUAGAUCUCCCUUUAGUGAGGGUUA
modifications: 2'-NH2 pyrimidines
Work on B15 yielded a Kd (TGFβ1 [1]) of 3.4 nM.

B16: 59N (ssRNA)
RNA: GGGAGGACGAUGCGGGGUGGGUGGUUACCUGUAAUUAUAUUGAUUCUGGCUUUAGCAGACGACUCGCCCGA
modifications: 2'-NH2 pyrimidines
B16 gave a Kd (KGF (hKGF) [4]) of 22 nM.

GGGAGGACGAUGCGGUGGUCUCCCCUAAACUUUCUCCAUCGUAUC (ssRNA, 2'-F pyrimidines) [T4]: binds (KGF (hKGF) [3]).

GGGAGGACGAUGCGGUGGUCUCCCAAUUCUAUCUCCAUCGUAUC (ssRNA, 2'-F pyrimidines) [T18]: binds (KGF (hKGF) [3]).

GGGAGGACGAUGCGGUGGUCUCCCAAUUCUUUCUCCAUCGUAUC (ssRNA, 2'-F pyrimidines) [T21]: binds (KGF (hKGF) [3]).
